From paper doi:10.1101/2020.02.11.943159 (bioRxiv, 2020)
Where no end group is shown, it is not given here.

B1: PHF3 SPOC R1248A mutant, bacterially expressed (domain or fragment)
chain: STFLARLNFIWKGFINMPSVAKFVTKAYPVSGSPEYLTEDLPDSIQVGGAISPQTVWDYVEKIKASGTKEICVVRFTPVTEEDQISYTLLFAYFSSRKRYGVAANNMKQVKDMYLIPLGATDKIPHPLVPFDGPGLELHRPNLLLGLIIRQKLKRQHS

Columns and labels:
pS2 CTD diheptapeptide [1] = assay: fluorescence correlation spectroscopy
[2] = biological target: pS2pS5 CTD diheptapeptide; assay: fluorescence correlation spectroscopy
[3] = biological target: T1, pS2pS5 CTD diheptapeptide (also: pS2pS5: Ser2 and Ser5 phosphorylated, which heptad repeat(s) not given here); assay: fluorescence polarisation
T1 peptide: YSPTSPSYSPTSPS

[4] = biological target: T2, pS2pS7 CTD diheptapeptide (also: pS2pS7: Ser2 and Ser7 phosphorylated, which heptad repeat(s) not given here); assay: fluorescence polarisation
T2 peptide: YSPTSPSYSPTSPS

pS2 CTD diheptapeptide [5] = biological target: T3, pS2 CTD diheptapeptide (also: pS2: Ser2 phosphorylated, which heptad repeat(s) not given here); assay: fluorescence polarisation
T3 peptide: YSPTSPSYSPTSPS

Molecule | stoichiometry N (pS2 CTD diheptapeptide [1]) | stoichiometry N [2] | fold reduction of binding against SPOC WT [3] | fold reduction of binding against SPOC WT [4] | fold reduction of binding against SPOC WT (pS2 CTD diheptapeptide [5])
PHF3 SPOC domain (1199-1356aa), bacterially expressed (from UniProt Q92576 1199-1356) (domain or fragment) | 1 | 1 | – | – | –
B1 | – | – | > 10 fold | > 10 fold | > 10 fold
